Laboratory results from article PMC4157346 (The Biochemical journal, 2013).

Experiments:
[1] = target: CXCL8-(1-66) truncated monomer (human); experiment: NMR titration
[2] = target: CXCL8-(1-66) P32G mutant, 15N-labelled (human, 15N-labelled); experiment: NMR titration

## LWTWFEDEFANATGMPPVEKDYSPCLVVTQTLNK [CXCR1 N-terminal domain peptide]
[1]
  Kd: 12 ± 2 µM
[2]
  Kd: 11 ± 1 µM
